From patent publication US7585967 (VASGENE THERAPEUTICS, dated 2009)

Columns and labels:
[1] = biological target: T1, B4ECv3 protein (soluble extracellular domain of human EphB4 with V5 epitope tag and 6xHis tag on its … (human, UniProt P54760 16-537)); assay: B4ECv3 on Ni-NTA-agarose, B2-AP at 50 nM, PNPP colour
T1 construct: also called EphB4ECv3; hB4ECv3
T1 sequence: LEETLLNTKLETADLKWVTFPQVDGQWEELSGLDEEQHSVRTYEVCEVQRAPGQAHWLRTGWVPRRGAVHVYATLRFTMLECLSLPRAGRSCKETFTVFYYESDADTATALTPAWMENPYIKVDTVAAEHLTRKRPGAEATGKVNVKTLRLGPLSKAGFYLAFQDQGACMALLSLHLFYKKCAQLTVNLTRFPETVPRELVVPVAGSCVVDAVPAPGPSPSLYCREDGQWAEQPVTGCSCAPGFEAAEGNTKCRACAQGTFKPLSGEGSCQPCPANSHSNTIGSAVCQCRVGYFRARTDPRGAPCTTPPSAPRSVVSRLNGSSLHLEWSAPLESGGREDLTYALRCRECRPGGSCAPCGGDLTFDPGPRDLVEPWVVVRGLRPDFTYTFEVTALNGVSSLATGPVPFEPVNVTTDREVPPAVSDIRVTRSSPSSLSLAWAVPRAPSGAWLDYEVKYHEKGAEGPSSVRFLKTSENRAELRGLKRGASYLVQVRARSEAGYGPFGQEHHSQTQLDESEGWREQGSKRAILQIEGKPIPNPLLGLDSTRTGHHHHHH
Procedure: 10 µl of Ni-NTA-Agarose were incubated in microcentrifuge tubes with 50 µl of indicated amount of B4ECv3 diluted in binding buffer BB (20 mM Tris-HCl, 0.15 M NaCl, 0.1% bovine serum albumin pH 8) After incubation for 30 min on shaking platform, Ni-NTA beads were washed twice with 1.4 ml of BB, followed by application of 50 µl of B2-AP in the final concentration of 50 nM. Binding was performed for 30 min on shaking platform, and then tubes were centrifuged and washed one time with 1.4 ml of BB. Amount of precipitated AP was measured […] after application of PNPP.

[2] = biological target: T2, B4-GCF2 protein (complete extracellular part of human EphB4, C-terminally 6xHis tagged) (human, UniProt P54760 16-537); assay: Ephrin B2-AP on B4 proteins immobilized on Ni2+-resin or on nitrocellulose membrane
T2 construct: Range 1-522 is numbered on mature EphB4 (after leader removal)
T2 sequence: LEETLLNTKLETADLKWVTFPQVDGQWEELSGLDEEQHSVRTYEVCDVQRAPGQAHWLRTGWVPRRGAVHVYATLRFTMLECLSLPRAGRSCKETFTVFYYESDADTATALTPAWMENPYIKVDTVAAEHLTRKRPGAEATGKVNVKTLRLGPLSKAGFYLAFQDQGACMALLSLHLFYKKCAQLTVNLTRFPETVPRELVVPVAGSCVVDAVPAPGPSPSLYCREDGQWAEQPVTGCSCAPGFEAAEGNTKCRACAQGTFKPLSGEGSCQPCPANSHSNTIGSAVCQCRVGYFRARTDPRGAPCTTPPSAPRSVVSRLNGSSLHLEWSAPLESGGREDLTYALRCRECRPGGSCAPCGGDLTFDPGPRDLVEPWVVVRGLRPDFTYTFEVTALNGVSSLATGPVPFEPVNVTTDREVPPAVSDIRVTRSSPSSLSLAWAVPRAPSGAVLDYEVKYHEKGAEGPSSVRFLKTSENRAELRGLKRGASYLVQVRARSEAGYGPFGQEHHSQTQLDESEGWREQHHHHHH
Procedure: (§1) To confirm ability of the purified recombinant proteins to bind Ephrin B2, they were tested in an in vitro binding assay. As expected, GC, GCF1 and GCF2, but not CF2 are binding the cognate ligand Ephrin B2 as confirmed by interaction between Ephrin B2-alkaline phosphatase (Ephrin B2-AP) fusion protein with the B4 proteins immobilized on Ni^2+-resin or on nitrocellulose membrane (FIG. 17).
(§2) To test ligand binding properties of the proteins, 10 µl of Ni-NTA-Agarose (Qiagen) were incubated in microcentrifuge tubes with 10-500 ng sample of a B4-ECD protein diluted in 0.5 ml of binding buffer BB (20 mM Tris-HCl, 0.15 M NaCl, 0.1% bovine serum albumin, pH 8). After incubation for 30 min on shaking platform, Ni-NTA beads were washed twice with 1.4 ml of BB, followed by addition of B2-AP fusion protein at concentration of 50 nM. Binding was performed for 30 min on a shaking platform. Tubes were centrifuged and washed once with 1.4 ml of BB. Amount of precipitated AP was measured colorimetrically at 420 nm after application of p-nitrophenyl phosphate (PNPP) and incubation for 5-30 min.

[3] = biological target: T3, B4-GCF1 protein (globular, Cys-rich and first FNIII domain of human EphB4, C-terminally 6xHis tagged) (human, UniProt P54760 16-427); assay: as above
T3 construct: Range is numbered on mature EphB4
T3 sequence: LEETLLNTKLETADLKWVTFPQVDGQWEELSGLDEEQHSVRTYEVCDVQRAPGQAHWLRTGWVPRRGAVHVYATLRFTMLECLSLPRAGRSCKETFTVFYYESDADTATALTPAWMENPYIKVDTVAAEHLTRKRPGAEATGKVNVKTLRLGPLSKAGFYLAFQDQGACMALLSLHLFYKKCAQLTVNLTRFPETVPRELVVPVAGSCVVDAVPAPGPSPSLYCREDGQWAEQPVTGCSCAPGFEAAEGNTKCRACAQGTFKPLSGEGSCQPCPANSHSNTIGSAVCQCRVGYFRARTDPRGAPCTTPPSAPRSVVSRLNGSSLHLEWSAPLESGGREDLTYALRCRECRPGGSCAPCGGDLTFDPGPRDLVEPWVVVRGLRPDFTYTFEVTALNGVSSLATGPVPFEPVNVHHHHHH
Procedure: as §1, §2

[4] = biological target: T4, B4-GC protein (globular domain and Cys-rich domain of human EphB4, C-terminally 6xHis tagged) (human, UniProt P54760 16-327); assay: as above
T4 construct: Range is numbered on mature EphB4
T4 sequence: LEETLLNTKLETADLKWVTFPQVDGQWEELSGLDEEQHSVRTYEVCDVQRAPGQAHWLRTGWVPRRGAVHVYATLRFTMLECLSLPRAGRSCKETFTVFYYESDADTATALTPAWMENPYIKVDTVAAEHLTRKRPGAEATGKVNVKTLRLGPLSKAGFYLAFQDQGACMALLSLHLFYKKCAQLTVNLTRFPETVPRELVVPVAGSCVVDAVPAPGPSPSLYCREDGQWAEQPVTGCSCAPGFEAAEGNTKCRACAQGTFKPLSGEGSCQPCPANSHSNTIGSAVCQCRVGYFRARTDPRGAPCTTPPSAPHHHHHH
Procedure: as §1, §2

[5] = biological target: T5, B4ECv3NT protein (soluble extracellular domain of human EphB4 without epitope or purification tags) (human, UniProt P54760 16-537); assay: biochemical assays with B2EC-AP reagent
T5 construct: also called EphB4ECnt; B4EC-NT
T5 sequence: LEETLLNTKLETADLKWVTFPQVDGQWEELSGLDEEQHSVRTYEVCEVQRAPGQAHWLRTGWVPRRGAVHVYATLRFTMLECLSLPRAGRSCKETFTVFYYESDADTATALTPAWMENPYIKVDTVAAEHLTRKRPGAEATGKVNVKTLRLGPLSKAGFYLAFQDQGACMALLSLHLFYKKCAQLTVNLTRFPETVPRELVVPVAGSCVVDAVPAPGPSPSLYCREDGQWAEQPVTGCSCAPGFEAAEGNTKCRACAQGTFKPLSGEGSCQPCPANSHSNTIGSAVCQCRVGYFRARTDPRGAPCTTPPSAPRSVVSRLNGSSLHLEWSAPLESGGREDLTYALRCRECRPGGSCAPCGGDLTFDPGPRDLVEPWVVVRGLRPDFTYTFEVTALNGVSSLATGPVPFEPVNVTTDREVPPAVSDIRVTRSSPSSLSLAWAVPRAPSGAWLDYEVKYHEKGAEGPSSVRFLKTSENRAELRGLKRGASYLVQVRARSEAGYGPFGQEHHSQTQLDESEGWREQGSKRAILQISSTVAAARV

[6] = biological target: T6, Mouse EphB4/Fc (R & D Systems) (mouse, UniProt P54761 16-539); assay: immunofluorescence on frozen KS sections, FITC-labeled anti-human Fc antibody
T6 construct: Bought; also called EphB4/Fc fusion protein; not shown: Fc; detected with anti-human Fc / anti-human IgG-FITC
T6 sequence (looked up): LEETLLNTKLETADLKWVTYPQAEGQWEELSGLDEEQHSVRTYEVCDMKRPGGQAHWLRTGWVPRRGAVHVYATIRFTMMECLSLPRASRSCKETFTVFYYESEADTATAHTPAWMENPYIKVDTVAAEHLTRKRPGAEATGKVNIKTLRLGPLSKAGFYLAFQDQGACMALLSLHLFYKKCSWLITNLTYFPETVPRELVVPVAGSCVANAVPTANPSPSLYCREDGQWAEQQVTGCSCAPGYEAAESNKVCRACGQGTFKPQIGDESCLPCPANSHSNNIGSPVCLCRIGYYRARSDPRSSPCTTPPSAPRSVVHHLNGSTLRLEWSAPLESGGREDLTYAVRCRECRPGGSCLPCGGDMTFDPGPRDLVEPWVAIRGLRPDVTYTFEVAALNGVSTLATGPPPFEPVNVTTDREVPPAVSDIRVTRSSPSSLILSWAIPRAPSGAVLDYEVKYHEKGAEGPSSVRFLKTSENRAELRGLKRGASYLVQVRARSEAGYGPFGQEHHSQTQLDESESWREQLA
Text: (A) In situ hybridization with antisense probes for ephrin B2 and EphB4 with corresponding H&E stained section to show tumor architecture. Dark blue color in the ISH indicates positive reaction for ephrin B2. No signal for EphB4 was detected in the Kaposi's sarcoma biopsy. For contrast, ISH signal for EphB4 is strong in squamous cell carcinoma tumor cells. Ephrin B2 was also detected in KS using EphB4-AP fusion protein (bottom left). (B) Detection of ephrin B2 with EphB4/Fc fusion protein. Adjacent sections were stained with H&E (left) to show tumor architecture, black rectangle indicates the area shown in the EphB4/Fc treated section (middle) detected with FITC-labeled anti-human Fc antibody as described in the methods section. As a control an adjacent section was treated with human Fc fragment (right). Specific signal arising from EphB4/Fc binding to the section is seen only in areas of tumor cells. (C) Co-expression of ephrin B2 and the HHV8 latency protein LANA1. […] Coexpression is seen as yellow color.
Immunofluorescence detection of EphrinB2 with EPHB4-Fc was done as follows. Frozen sections fixed in 4% paraformaldehyde and blocked with 20% FBS were incubated with 5 μg/ml EphB4/Fc (R&D Systems) for 1 h at RT. Sections were then incubated with 10 μg/ml rabbit anti-human IgG-FITC in PBS (Jackson ImmunoResearch Laboratories West Grove, Pa.) at RT for 1 hour. […]

Measured: binding result

B1: Ephrin B2-alkaline phosphatase (Ephrin B2-AP) fusion protein (protein fusion of Ephrin B2 ectodomain with placental alkaline phosphatase) (ligand)
chain: IVLEPIYWNSSNSKFLPGQGLVLYPQIGDKLDIICPKVDSKTVGQYEYYKVYMVDKDQADRCTIKKENTPLLNCAKPDQDIKFTIKFQEFSPNLWGLEFQKNKDYYIISTSNGSLEGLDNQEGGVCQTRAMKILMKVGQDASSAGSTRNKDPTRRPELEAGTNGRSSTTSPFVKPNPGSSTDGNSAGHSGNNILGSEVALFA
notes: also called B2EC-AP; B2ECAP; not shown: placental alkaline phosphatase from the pAPTag2 vector (GenHunter)
not listed: [6]
binds: all other assays above

B2: ephrin B2 on tumor cells of human Kaposi's sarcoma biopsy sections (ligand)
chain: IVLEPIYWNSSNSKFLPGQGLVLYPQIGDKLDIICPKVDSKTVGQYEYYKVYMVDKDQADRCTIKKENTPLLNCAKPDQDIKFTIKFQEFSPNLWGLEFQKNKDYYIISTSNGSLEGLDNQEGGVCQTRAMKILMKVGQDASSAGSTRNKDPTRRPELEAGTNGRSSTTSPFVKPNPGSSTDGNSAGHSGNNILGSEVALFAGIASGCIIFIVIIITLVVLLLKYRRRHRKHSPQHTTTLSLSTLATPKRSGNNNGSEPSDIIIPLRTADSVFCPHYEKVSGDYGHPVYIVQEMPPQSPANIYYKV
binds: [6]
